# Biological target: CD64 (human, UniProt P12314 16-374)
# Assay: cell-based or functional assay
# Sequence of CD64 (P12314 16-374): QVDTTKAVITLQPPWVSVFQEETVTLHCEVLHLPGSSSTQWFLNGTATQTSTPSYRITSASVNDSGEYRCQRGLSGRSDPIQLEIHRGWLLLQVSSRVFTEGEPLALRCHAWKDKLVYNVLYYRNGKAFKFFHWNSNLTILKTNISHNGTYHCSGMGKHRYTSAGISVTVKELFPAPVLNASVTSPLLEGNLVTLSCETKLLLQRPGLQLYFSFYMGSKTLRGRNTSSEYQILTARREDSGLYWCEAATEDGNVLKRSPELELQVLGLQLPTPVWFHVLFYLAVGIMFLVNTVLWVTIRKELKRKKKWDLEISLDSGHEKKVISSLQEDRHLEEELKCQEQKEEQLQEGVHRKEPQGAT
binder,measurement,value
H22-Ang GGRR/QGmut (other) DAAQPAMAQVQLVESGGGVVQPGRSLRLSCSSSGFIFSDNYMYWVRQAPGKGLEWVATISDGGSYTYYPDSVKGRFTISRDNSKNTLFLQMDSLRPEDTGVYFCARGYYRYEGAMDYWGQGTPVTVSSGGGGSGGGGSGGGGSDIQLTQSPSSLSASVGDRVTITCKSSQSVLYSSNQKNYLAWYQQKPGKAPKLLIYWASTRESGVPSRFSGSGSGTDFTFTISSLQPEDIATYYCHQYLSSWTFGQGTKLEIKAAALESRQDNSRYTHFLTQHYDAKPQGRDDRYCESIMRRRGLTSPCKDINTFIHGNKRSIKAICENKNGNPHRENLRISKSSFQVTTCKLHRRSPWPPCQYRATAGFRNVVVACENGLPVHLDGSIFRRPAEHEFRGGPEQKLISEEDLNSAVDHHHHHH,"IC50, XTT viability assay on IFNγ-stimulated CD64+ HL-60 cells",4.2 nM
same,"IC50, XTT viability assay on activated human Mφ",0.075 nM
same,"IC50, XTT viability assay on hIFNγ-stimulated HL-60 cells",4.3 nM
